Results published in PMC11742385, “Selection and Characterization of a DNA Aptamer Recognizing High Mobility Group Box 1 Protein (HMGB1) and Enhancing Its Pro-inflammatory Activity”.

What was measured:
rhHMGB1 = rhHMGB1 (Homo sapiens, UniProt P09429 1-215); test: microplate aptamer binding assay (streptavidin-HRP); 1 mM Mg2+, 1 mM Ca2+; SHMCK: 20 mM Hepes, 120 mM NaCl, 5 mM KCl, 1 mM MgCl2, 1 mM CaCl2, pH 7.4, 37 C, 1 h; protein coated 2 pmol/well, 3% BSA block, PBST washes; conditions: protein: recombinant; tags: His tag implied (pET28a, Ni-NTA); predicted hairpin (9-50) and stem-loops (52-69) linked by a T
rhHMGB2 = molecular target: T1, rhHMGB2 (UniProt P26583 1-209); test: microplate aptamer binding assay; 1 mM Mg2+, 1 mM Ca2+; 5 nM aptamer; SHMCK: 20 mM Hepes, 120 mM NaCl, 5 mM KCl, 1 mM MgCl2, 1 mM CaCl2, pH 7.4, 37 C, 1 h; protein coated 2 pmol/well, 3% BSA block, PBST washes; conditions: protein: commercial; predicted hairpin (9-50) and stem-loops (52-69) linked by a T
T1 sequence: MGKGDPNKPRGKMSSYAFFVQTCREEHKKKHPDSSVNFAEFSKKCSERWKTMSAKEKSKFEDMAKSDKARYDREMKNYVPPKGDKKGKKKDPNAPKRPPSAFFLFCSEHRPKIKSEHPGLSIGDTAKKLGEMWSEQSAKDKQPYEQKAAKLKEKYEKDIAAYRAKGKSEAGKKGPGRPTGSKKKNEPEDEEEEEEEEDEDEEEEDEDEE

rhHMGB1 A box = molecular target: T2, rhHMGB1 A box (Homo sapiens, UniProt P09429 9-79); test: microplate aptamer binding assay; dot blot; 1 mM Mg2+, 1 mM Ca2+; 5 nM aptamer (microplate); SHMCK: 20 mM Hepes, 120 mM NaCl, 5 mM KCl, 1 mM MgCl2, 1 mM CaCl2, pH 7.4, 37 C, 1 h; protein coated 2 pmol/well, 3% BSA block, PBST washes; conditions: protein: recombinant; tags: His tag implied (pET28a, Ni-NTA); predicted hairpin (9-50) and stem-loops (52-69) linked by a T
T2 sequence: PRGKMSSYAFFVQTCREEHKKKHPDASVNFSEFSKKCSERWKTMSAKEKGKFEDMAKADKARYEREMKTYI

rhHMGB1, sequence (P09429 whole entry): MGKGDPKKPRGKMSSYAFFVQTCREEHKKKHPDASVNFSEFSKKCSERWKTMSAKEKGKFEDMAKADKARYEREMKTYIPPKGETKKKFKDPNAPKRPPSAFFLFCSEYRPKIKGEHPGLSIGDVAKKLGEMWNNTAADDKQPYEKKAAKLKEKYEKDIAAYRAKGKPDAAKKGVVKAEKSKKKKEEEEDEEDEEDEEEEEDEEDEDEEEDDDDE

B1: H-ap25 (structured_DNA)
DNA: GGACAAGAATCACCGCTCTGGGTTTGGCGTCGGGCCTGGCGAAAGGTGGTTGTGCGGAGAGAGCGTACAGGAGGCATACAG
In the case of B1, the Kd (rhHMGB1) is reported as 8.2 ± 0.53 nM, the binding result (rhHMGB2) is reported as “no binding” and the binding result (rhHMGB1 A box) is reported as “no binding”.
